{"source": "patent US20250188133A1", "about": "“CHIMERIC BACTERIOCINS AND METHOD FOR THE CONTROL OF PSEUDOMONAS” (priority 2022, published 2025)", "molecules": {"B1": {"name": "S5-PmnH (protein)", "chain": "MSNDNEVPGSMVIVAQGPDDQYAYEVPPIDSAAVAGNMFGDLIQREIYLQKNIYYPVRSIFEQGTKEKKEINKKVSDQVDGLLKQITQGKREATRQERVDVMSAVLHKMESDLEGYKKTFTKGPFIDYEKQSSLSIYEAWVKIWEKNSWEERKKYPFQQLVRDELERAVAYYKQDSLSEAVKVLRQELNKQKALKEKEDLSQLERDYRTRKANLEMKVQSELDQAGSALPPLVSPTPEQWLERATRLVTQAIADKKQLQTTNNTLIKNSPTPLEKQKAIYNGELLVDEIASLQARLVKLNAETTRRRTEKELTPDEKAAYTDAVSFVSTANEQMLQKYGANLSKVAQDMQAEIAGKKVRSYAEAMATFEKISANPAMKLNALDTQAVVDALNALDKASFADNITRLGKAFGVVGKVVQAEAIREKTVSGFQTGDWKPLMLELEAMAVGTGAGILLATSMAFFFPVFASAAAGVVVVALMMAATAAYFDAAKVDEINNLILN", "modifications": "Chimeric S5-PmnH"}}, "assay_type_in_all_cases": "cell-based", "key": {"[1]": {"tested_on": "P. aeruginosa 13-18499", "assay": "agar disc-diffusion assay", "conditions": "strain 13-18499; 0.3, 3 and 30 μg of protein spotted on discs on CAA agar lawn, overnight", "summary_of_the_method": "(§1)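 Purified pyocin (0.3, 3 or 30 μg) was applied to 6 mm discs laid on lawns of P. aeruginosa prepared from 100×-diluted OD595=1.0 CAA cultures. Growth inhibition zones were recorded after overnight incubation at 37° C.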"}, "[2]": {"tested_on": "P. aeruginosa A19", "assay": "agar disc-diffusion assay", "conditions": "strain A19; 0.3, 3 and 30 μg of protein spotted on discs on CAA agar lawn, overnight", "summary_of_the_method": "as §1"}, "[3]": {"tested_on": "P. aeruginosa ATCC 19660", "assay": "agar disc-diffusion assay", "conditions": "strain ATCC 19660; 0.3, 3 and 30 μg of protein spotted on discs on CAA agar lawn, overnight", "summary_of_the_method": "as §1"}, "[4]": {"tested_on": "P. aeruginosa ATCC 29260", "assay": "agar disc-diffusion assay", "conditions": "strain ATCC 29260; 0.3, 3 and 30 μg of protein spotted on discs on CAA agar lawn, overnight", "summary_of_the_method": "as §1"}, "[5]": {"tested_on": "P. aeruginosa BI80", "assay": "agar disc-diffusion assay", "conditions": "strain BI80; 0.3, 3 and 30 μg of protein spotted on discs on CAA agar lawn, overnight", "summary_of_the_method": "as §1"}, "[6]": {"tested_on": "P. aeruginosa BL77", "assay": "agar disc-diffusion assay", "conditions": "strain BL77; 0.3, 3 and 30 μg of protein spotted on discs on CAA agar lawn, overnight", "summary_of_the_method": "as §1"}, "[7]": {"tested_on": "P. aeruginosa Bu002", "assay": "agar disc-diffusion assay", "conditions": "strain Bu002; 0.3, 3 and 30 μg of protein spotted on discs on CAA agar lawn, overnight", "summary_of_the_method": "as §1"}, "[8]": {"tested_on": "P. aeruginosa EY76", "assay": "agar disc-diffusion assay", "conditions": "strain EY76; 0.3, 3 and 30 μg of protein spotted on discs on CAA agar lawn, overnight", "summary_of_the_method": "as §1"}, "[9]": {"tested_on": "P. aeruginosa HP1", "assay": "agar disc-diffusion assay", "conditions": "strain HP1; 0.3, 3 and 30 μg of protein spotted on discs on CAA agar lawn, overnight", "summary_of_the_method": "as §1"}, "[10]": {"tested_on": "P. aeruginosa HP40", "assay": "agar disc-diffusion assay", "conditions": "strain HP40; 0.3, 3 and 30 μg of protein spotted on discs on CAA agar lawn, overnight", "summary_of_the_method": "as §1"}, "[11]": {"tested_on": "P. aeruginosa HP41", "assay": "agar disc-diffusion assay", "conditions": "strain HP41; 0.3, 3 and 30 μg of protein spotted on discs on CAA agar lawn, overnight", "summary_of_the_method": "as §1"}, "[12]": {"tested_on": "P. aeruginosa HP52", "assay": "agar disc-diffusion assay", "conditions": "strain HP52; 0.3, 3 and 30 μg of protein spotted on discs on CAA agar lawn, overnight", "summary_of_the_method": "as §1"}, "[13]": {"tested_on": "P. aeruginosa HP6", "assay": "agar disc-diffusion assay", "conditions": "strain HP6; 0.3, 3 and 30 μg of protein spotted on discs on CAA agar lawn, overnight", "summary_of_the_method": "as §1"}, "[14]": {"tested_on": "P. aeruginosa HP75", "assay": "agar disc-diffusion assay", "conditions": "strain HP75; 0.3, 3 and 30 μg of protein spotted on discs on CAA agar lawn, overnight", "summary_of_the_method": "as §1"}, "[15]": {"tested_on": "P. aeruginosa HP7", "assay": "agar disc-diffusion assay", "conditions": "strain HP7; 0.3, 3 and 30 μg of protein spotted on discs on CAA agar lawn, overnight", "summary_of_the_method": "as §1"}, "[16]": {"tested_on": "P. aeruginosa NCTC 13437", "assay": "agar disc-diffusion assay", "conditions": "strain NCTC 13437; 0.3, 3 and 30 μg of protein spotted on discs on CAA agar lawn, overnight", "summary_of_the_method": "as §1"}, "[17]": {"tested_on": "P. aeruginosa NCTC 13921", "assay": "agar disc-diffusion assay", "conditions": "strain NCTC 13921; 0.3, 3 and 30 μg of protein spotted on discs on CAA agar lawn, overnight", "summary_of_the_method": "as §1"}, "[18]": {"tested_on": "P. aeruginosa PA14", "assay": "agar disc-diffusion assay", "conditions": "strain PA14; 0.3, 3 and 30 μg of protein spotted on discs on CAA agar lawn, overnight", "summary_of_the_method": "as §1"}, "[19]": {"tested_on": "P. aeruginosa PAO1", "assay": "agar disc-diffusion assay", "conditions": "strain PAO1; 0.3, 3 and 30 μg of protein spotted on discs on CAA agar lawn, overnight", "summary_of_the_method": "as §1"}, "[20]": {"tested_on": "P. aeruginosa Pr335", "assay": "agar disc-diffusion assay", "conditions": "strain Pr335; 0.3, 3 and 30 μg of protein spotted on discs on CAA agar lawn, overnight", "summary_of_the_method": "as §1"}, "[21]": {"tested_on": "P. aeruginosa strains", "assay": "agar disc-diffusion assay, panel of 25 strains", "summary_of_the_method": "as §1"}}, "data": [{"molecule": "B1", "values": [{"measurement": "Activity in agar disc-diffusion assay", "setting": "[1]", "result": "** (activity detected with 3 μg of protein)"}, {"measurement": "Activity in agar disc-diffusion assay", "setting": "[2]", "result": "*** (activity detected with 0.3 μg of protein)"}, {"measurement": "Activity in agar disc-diffusion assay", "setting": "[3]", "result": "** (activity detected with 3 μg of protein)"}, {"measurement": "Activity in agar disc-diffusion assay", "setting": "[4]", "result": "*** (activity detected with 0.3 μg of protein)"}, {"measurement": "Activity in agar disc-diffusion assay", "setting": "[5]", "result": "*** (activity detected with 0.3 μg of protein)"}, {"measurement": "Activity in agar disc-diffusion assay", "setting": "[6]", "result": "** (activity detected with 3 μg of protein)"}, {"measurement": "Activity in agar disc-diffusion assay", "setting": "[7]", "result": "*** (activity detected with 0.3 μg of protein)"}, {"measurement": "Activity in agar disc-diffusion assay", "setting": "[8]", "result": "*** (activity detected with 0.3 μg of protein)"}, {"measurement": "Activity in agar disc-diffusion assay", "setting": "[9]", "result": "*** (activity detected with 0.3 μg of protein)"}, {"measurement": "Activity in agar disc-diffusion assay", "setting": "[10]", "result": "*** (activity detected with 0.3 μg of protein)"}, {"measurement": "Activity in agar disc-diffusion assay", "setting": "[11]", "result": "*** (activity detected with 0.3 μg of protein)"}, {"measurement": "Activity in agar disc-diffusion assay", "setting": "[12]", "result": "** (activity detected with 3 μg of protein)"}, {"measurement": "Activity in agar disc-diffusion assay", "setting": "[13]", "result": "*** (activity detected with 0.3 μg of protein)"}, {"measurement": "Activity in agar disc-diffusion assay", "setting": "[14]", "result": "** (activity detected with 3 μg of protein)"}, {"measurement": "Activity in agar disc-diffusion assay", "setting": "[15]", "result": "*** (activity detected with 0.3 μg of protein)"}, {"measurement": "Activity in agar disc-diffusion assay", "setting": "[16]", "result": "* (activity detected only with 30 μg of protein)"}, {"measurement": "Activity in agar disc-diffusion assay", "setting": "[17]", "result": "*** (activity detected with 0.3 μg of protein)"}, {"measurement": "Activity in agar disc-diffusion assay", "setting": "[18]", "result": "*** (activity detected with 0.3 μg of protein)"}, {"measurement": "Activity in agar disc-diffusion assay", "setting": "[19]", "result": "*** (activity detected with 0.3 μg of protein)"}, {"measurement": "Activity in agar disc-diffusion assay", "setting": "[20]", "result": "*** (activity detected with 0.3 μg of protein)"}, {"measurement": "inhibition on lawns of S5 producer strains HP6 and HP7", "setting": "[21]; clinical isolates HP6 and HP7, S5 gave turbid zones with 3 μg and 30 μg", "result": "significantly larger and clearer than those formed by S5"}, {"measurement": "activity spectrum / profile in agar disc diffusion assay", "setting": "[21]; panel of 25 P. aeruginosa strains, in words", "result": "broadened activity spectrum in comparison to pyocin S5"}, {"measurement": "inhibition zones on lawns of S5-producing strains", "setting": "[21]; six pyocin S5 and immunity gene-positive strains (PA14, PAO1, HP6, HP7, ATCC 19660, NCTC 13921)", "result": "formed inhibition zones on the lawns of all six S5-producing strains"}]}]}
